Test results published in PMC8880518, “Regulation of the Leucine Metabolism in Mortierella alpina” (Journal of Fungi, 2022).
Where two headings read alike, the source gives them in different places. Blank lines part the entries; values can stand above or below the molecule they belong to.

Key:
[1] = target: LeuA1, α-isopropylmalate synthase of Mortierella alpina (Mortierella alpina); assay: SEC; size exclusion chromatography of the purified His6-tagged proteins in solution; conditions are in the Supplementary Materials
[2] = target: T1, α-isopropylmalate synthase LeuA1 (Mortierella alpina, UniProt A0A9P6IVH7); assay: continuous DTNB assay of CoA release with purified recombinant enzyme; type: biochemical
T1 construct: gene BGZ70_001638; N-terminally His6-tagged LeuA1

[3] = target: T2, BCAA aminotransferase BatA (Mortierella alpina, UniProt A0A9P6M176); assay: activity of purified enzyme with and without PLP (HILIC-UHPLC-MS); type: biochemical
T2 construct: gene BCAT1; 374 aa), N-terminally His6-tagged
T2 sequence (A0A9P6M176 entry or part of it): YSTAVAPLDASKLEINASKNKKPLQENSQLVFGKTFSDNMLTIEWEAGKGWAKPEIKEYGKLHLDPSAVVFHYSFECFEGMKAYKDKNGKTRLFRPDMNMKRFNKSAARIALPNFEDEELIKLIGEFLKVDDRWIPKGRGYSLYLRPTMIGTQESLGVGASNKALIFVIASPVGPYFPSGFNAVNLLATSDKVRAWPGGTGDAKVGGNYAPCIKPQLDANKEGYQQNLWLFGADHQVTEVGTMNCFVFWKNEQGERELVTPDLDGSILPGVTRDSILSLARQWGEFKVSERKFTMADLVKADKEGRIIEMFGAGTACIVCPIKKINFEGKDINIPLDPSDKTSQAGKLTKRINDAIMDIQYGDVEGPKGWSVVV

purified protein = substrate: CC(=O)SCCNC(=O)CCNC(=O)[C@H](O)C(C)(C)COP(=O)(O)OP(=O)(O)OC[C@H]1O[C@@H](n2cnc3c(N)ncnc32)[C@H](O)[C@@H]1OP(=O)(O)O; assay: purified protein; details: divalent cation (Mg2+, exchangeable with Ca2+ or Mn2+)
[4] = substrate: CC(C)C(=O)C(=O)O; assay: Michaelis-Menten kinetics (KM), DTNB assay with purified recombinant enzyme; type: biochemical, Mortierella alpina; details: divalent cation (Mg2+, exchangeable with Ca2+ or Mn2+) substrate binding pocket
[5] = substrate: CCC(=O)C(=O)O; assay: as above; type: biochemical, Mortierella alpina; details: divalent cation (Mg2+, exchangeable with Ca2+ or Mn2+)

Molecule: CCC(=O)SCCNC(=O)CCNC(=O)[C@H](O)C(C)(C)COP(=O)(O)OP(=O)(O)OC[C@H]1O[C@@H](n2cnc3c(N)ncnc32)[C@H](O)[C@@H]1OP(=O)(O)O [Prop-CoA, propionyl-CoA]
Ki [2]: 320 ± 121 µM

Molecule: Cc1ncc(COP(=O)(O)O)c(C=O)c1O [PLP, pyridoxal phosphate]
activity of purified enzyme with and without PLP (HILIC-UHPLC-MS) [3]: The enzyme converted all BCAAs (L-Ile, L-Leu, L-Val) and their respective α-keto acids in a PLP-dependent manner

B1: α-isopropylmalate synthase LeuA1 (Mortierella alpina) (protein)
chain: MAQANKDKLIIFDTTLRDGEQSPGVTLTVNEKIEIAKQLSRLGVDVLEAGFPVASQGDFDAVERIAIEVGPLMVGREALGKPITIAGLARAVPADIQRCYDAIAKAPHKRIHTFLATSDIHLEHKLKISRDECVKRAVAAVSFAKTLVQDVEFSPEDAGRSDQDFLCKVLSAVIEAGATTLNIPDTVGYNMPEEYGSMIKYLIANTKGSDTVIWSAHCHNDLGLATANTLSGIMNGIRQVEVTINGIGERAGNTAMEEVVMAIHTHPNFFPVYHTINTPLFFRISQLVSSLSGMAVQSNKAIVGANAFLHESGIHQDGVLKNKTTYEIISPETVGANTVNLVLGKHSGRAAFKSRLQELGFGELSDEEFQVAFNSFKTLADSKKRVTEQDLLALLSDQVSAASGDKATFVIKSLQVVSGTSFATATVQLQNSQTGDVVVDAAIGKSGPVEAVFLAIQRLVGKRIRLLKFDITAVGEGVDALGQVSVKIAEDTSSPGSSDNDETAEEAKDSESKANEISQATYHGHGADSDIIQAATKAYLNAINRLVANENERLLGERKVDV
notes: N-terminally His6-tagged LeuA1
Km (purified protein): 28.6 ± 4.1 µM | kcat (purified protein): 25 s⁻¹ | kcat/Km (purified protein): 873000 M⁻¹ s⁻¹ | Km [4]: 56.9 ± 6.3 µM | kcat [4]: 26.6 ± 1.2 s⁻¹ | kcat/Km [4]: 467000 M⁻¹ s⁻¹ | Km [5]: 280.8 ± 45.0 µM | kcat [5]: 47.4 ± 5.41 s⁻¹ | kcat/Km [5]: 169000 M⁻¹ s⁻¹

Next, values leading:

stoichiometry N [1]: 6
Molecule: LeuA1, α-isopropylmalate synthase of Mortierella alpina (enzyme)

Ki ([2]; read-out: KI): 53 ± 2.5 µM
Molecule: CC(C)C[C@H](N)C(=O)O [Leu, L-leucine]

Ki ([2]; read-out: KI): 293 ± 30.4 µM
Molecule: CC(C)CC(=O)C(=O)O [KIC, α-ketoisocaproate]
